# Laboratory results from US20230256092A1, “COMBINED USE OF ANTI-CCR8 ANTIBODY AND CHEMOTHERAPEUTIC AGENT” (Shionogi & Co., Ltd., priority 2020, published 2023).
# Target: T1, human CCR8 (Homo sapiens, UniProt P51685)
# T1 construct: expressed in transfected cells; host or cells: 293 cells
# Test: Neutralizing activity: inhibition of Ca2+ influx by 200 nM hCCL1 in human CCR8 expressing 293 cells (FLIPR), Test Example 6
# Assay type: cell-based
# Conditions: Table 9; WT IC50/mutant IC50; humanized 10A11 heavy chain CDR mutants, IGKV4-1/IGHV3-73
# Description: The antibody dilution diluted with a medium was added to human CCR8 expressing 293 cells in which a Ca^2+ indicator was incorporated beforehand, and Ca^2+ influx by addition of 200 nM hCCL1 (manufactured by BioLegend) was measured with FLIPR. […] The evaluation was performed at least three times, and IC50 was expressed as average±SD.
row,Molecule,IC50 ratio
1,"h10A11 (IGKV4-1/IGHV3-73 K64R): humanized 10A11 heavy chain CDR point mutant (antibody, V domains shown) VL: DIVMTQSPDSLAVSLGERATINCRSSKSLLHSNGNTYLYWYQQKPGQPPKLLIYRMSNLASGVPDRFSGSGSGTDFTLTISSLQAEDVAVYYCMQHLEYPLTFGQGTKLEIKRT VH: EVQLVESGGGLVQPGGSLKLSCAASGFAFNTYALYWVRQASGKGLEWVGRIRSKSNNYATYYADSVRDRFTISRDDSKNTAYLQMNSLKTEDTAVYYCTRARFYYSDYGYAMDYWGQGTLVTVSS",0.54
2,"h10A11 (IGKV4-1/IGHV3-73 R96K): humanized 10A11 heavy chain CDR point mutant (antibody, V domains shown) VL: DIVMTQSPDSLAVSLGERATINCRSSKSLLHSNGNTYLYWYQQKPGQPPKLLIYRMSNLASGVPDRFSGSGSGTDFTLTISSLQAEDVAVYYCMQHLEYPLTFGQGTKLEIKRT VH: EVQLVESGGGLVQPGGSLKLSCAASGFAFNTYALYWVRQASGKGLEWVGRIRSKSNNYATYYADSVKDRFTISRDDSKNTAYLQMNSLKTEDTAVYYCTRAKFYYSDYGYAMDYWGQGTLVTVSS",n.d. (The n.d. (=not detectable) indicates that the IC50 value of the mutant is 10 nM or more)
3,"h10A11 (IGKV4-1/IGHV3-73 Y98F): humanized 10A11 heavy chain CDR point mutant (antibody, V domains shown) VL: DIVMTQSPDSLAVSLGERATINCRSSKSLLHSNGNTYLYWYQQKPGQPPKLLIYRMSNLASGVPDRFSGSGSGTDFTLTISSLQAEDVAVYYCMQHLEYPLTFGQGTKLEIKRT VH: EVQLVESGGGLVQPGGSLKLSCAASGFAFNTYALYWVRQASGKGLEWVGRIRSKSNNYATYYADSVKDRFTISRDDSKNTAYLQMNSLKTEDTAVYYCTRARFFYSDYGYAMDYWGQGTLVTVSS",0.07
4,"h10A11 (IGKV4-1/IGHV3-73 Y100bF): humanized 10A11 heavy chain CDR point mutant (antibody, V domains shown) VL: DIVMTQSPDSLAVSLGERATINCRSSKSLLHSNGNTYLYWYQQKPGQPPKLLIYRMSNLASGVPDRFSGSGSGTDFTLTISSLQAEDVAVYYCMQHLEYPLTFGQGTKLEIKRT VH: EVQLVESGGGLVQPGGSLKLSCAASGFAFNTYALYWVRQASGKGLEWVGRIRSKSNNYATYYADSVKDRFTISRDDSKNTAYLQMNSLKTEDTAVYYCTRARFYYSDFGYAMDYWGQGTLVTVSS",0.75
5,"h10A11 (IGKV4-1/IGHV3-73 F97L): humanized 10A11 heavy chain CDR point mutant (antibody, V domains shown) VL: DIVMTQSPDSLAVSLGERATINCRSSKSLLHSNGNTYLYWYQQKPGQPPKLLIYRMSNLASGVPDRFSGSGSGTDFTLTISSLQAEDVAVYYCMQHLEYPLTFGQGTKLEIKRT VH: EVQLVESGGGLVQPGGSLKLSCAASGFAFNTYALYWVRQASGKGLEWVGRIRSKSNNYATYYADSVKDRFTISRDDSKNTAYLQMNSLKTEDTAVYYCTRARLYYSDYGYAMDYWGQGTLVTVSS",n.d. (The n.d. (=not detectable) indicates that the IC50 value of the mutant is 10 nM or more)

# The remaining lines, values ahead:
row,IC50 ratio,Molecule
1,0.30,"h10A11 (IGKV4-1/IGHV3-73 D100aE): humanized 10A11 heavy chain CDR point mutant (antibody, V domains shown) VL: DIVMTQSPDSLAVSLGERATINCRSSKSLLHSNGNTYLYWYQQKPGQPPKLLIYRMSNLASGVPDRFSGSGSGTDFTLTISSLQAEDVAVYYCMQHLEYPLTFGQGTKLEIKRT VH: EVQLVESGGGLVQPGGSLKLSCAASGFAFNTYALYWVRQASGKGLEWVGRIRSKSNNYATYYADSVKDRFTISRDDSKNTAYLQMNSLKTEDTAVYYCTRARFYYSEYGYAMDYWGQGTLVTVSS"
2,0.55,"h10A11 (IGKV4-1/IGHV3-73 Y100dF): humanized 10A11 heavy chain CDR point mutant (antibody, V domains shown) VL: DIVMTQSPDSLAVSLGERATINCRSSKSLLHSNGNTYLYWYQQKPGQPPKLLIYRMSNLASGVPDRFSGSGSGTDFTLTISSLQAEDVAVYYCMQHLEYPLTFGQGTKLEIKRT VH: EVQLVESGGGLVQPGGSLKLSCAASGFAFNTYALYWVRQASGKGLEWVGRIRSKSNNYATYYADSVKDRFTISRDDSKNTAYLQMNSLKTEDTAVYYCTRARFYYSDYGFAMDYWGQGTLVTVSS"
3,0.49,"h10A11 (IGKV4-1/IGHV3-73 A100eV): humanized 10A11 heavy chain CDR point mutant (antibody, V domains shown) VL: DIVMTQSPDSLAVSLGERATINCRSSKSLLHSNGNTYLYWYQQKPGQPPKLLIYRMSNLASGVPDRFSGSGSGTDFTLTISSLQAEDVAVYYCMQHLEYPLTFGQGTKLEIKRT VH: EVQLVESGGGLVQPGGSLKLSCAASGFAFNTYALYWVRQASGKGLEWVGRIRSKSNNYATYYADSVKDRFTISRDDSKNTAYLQMNSLKTEDTAVYYCTRARFYYSDYGYVMDYWGQGTLVTVSS"
4,1.30,"h10A11 (IGKV4-1/IGHV3-73 D65E): humanized 10A11 heavy chain CDR point mutant (antibody, V domains shown) VL: DIVMTQSPDSLAVSLGERATINCRSSKSLLHSNGNTYLYWYQQKPGQPPKLLIYRMSNLASGVPDRFSGSGSGTDFTLTISSLQAEDVAVYYCMQHLEYPLTFGQGTKLEIKRT VH: EVQLVESGGGLVQPGGSLKLSCAASGFAFNTYALYWVRQASGKGLEWVGRIRSKSNNYATYYADSVKERFTISRDDSKNTAYLQMNSLKTEDTAVYYCTRARFYYSDYGYAMDYWGQGTLVTVSS"
5,0.07,"h10A11 (IGKV4-1/IGHV3-73 G100cA): humanized 10A11 heavy chain CDR point mutant (antibody, V domains shown) VL: DIVMTQSPDSLAVSLGERATINCRSSKSLLHSNGNTYLYWYQQKPGQPPKLLIYRMSNLASGVPDRFSGSGSGTDFTLTISSLQAEDVAVYYCMQHLEYPLTFGQGTKLEIKRT VH: EVQLVESGGGLVQPGGSLKLSCAASGFAFNTYALYWVRQASGKGLEWVGRIRSKSNNYATYYADSVKDRFTISRDDSKNTAYLQMNSLKTEDTAVYYCTRARFYYSDYAYAMDYWGQGTLVTVSS"
6,0.80,"h10A11 (IGKV4-1/IGHV3-73 Y99F): humanized 10A11 heavy chain CDR point mutant (antibody, V domains shown) VL: DIVMTQSPDSLAVSLGERATINCRSSKSLLHSNGNTYLYWYQQKPGQPPKLLIYRMSNLASGVPDRFSGSGSGTDFTLTISSLQAEDVAVYYCMQHLEYPLTFGQGTKLEIKRT VH: EVQLVESGGGLVQPGGSLKLSCAASGFAFNTYALYWVRQASGKGLEWVGRIRSKSNNYATYYADSVKDRFTISRDDSKNTAYLQMNSLKTEDTAVYYCTRARFYFSDYGYAMDYWGQGTLVTVSS"
7,0.64,"h10A11 (IGKV4-1/IGHV3-73 S100T): humanized 10A11 heavy chain CDR point mutant (antibody, V domains shown) VL: DIVMTQSPDSLAVSLGERATINCRSSKSLLHSNGNTYLYWYQQKPGQPPKLLIYRMSNLASGVPDRFSGSGSGTDFTLTISSLQAEDVAVYYCMQHLEYPLTFGQGTKLEIKRT VH: EVQLVESGGGLVQPGGSLKLSCAASGFAFNTYALYWVRQASGKGLEWVGRIRSKSNNYATYYADSVKDRFTISRDDSKNTAYLQMNSLKTEDTAVYYCTRARFYYTDYGYAMDYWGQGTLVTVSS"
